Data reported in article PMC10345426, “Structural polymorphism of the PH domain in TFIIH” (Bioscience Reports, 2023).
Where two headings read alike, the source gives them in different places.

T1: PH domain of fission yeast (Schizosaccharomyces pombe) Tfb1, residues 1-108 (Schizosaccharomyces pombe, UniProt O13745 1-108)
T1 construct: General transcription and DNA repair factor IIH subunit tfb1 (spTfb1), Schizosaccharomyces pombe, UniProt name TFB1_SCHPO, N-terminal PH domain, residues 1-108; 15N-labelled in the NMR titration; Residues of the vector may be left at the N-terminus after thrombin cleavage (surmised); also called spPH; spPH domain; source: E. coli BL21-Gold (DE3), pET15b, purified (His-tag resin, thrombin …)
T1 sequence (looked up): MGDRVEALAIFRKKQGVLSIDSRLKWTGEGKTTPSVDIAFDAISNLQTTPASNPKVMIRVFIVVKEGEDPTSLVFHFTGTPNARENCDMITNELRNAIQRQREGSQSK


Legend:
[1] = target: TFIIH p62 PH (Homo sapiens) (UniProt P32780); details: cited from earlier work
Sequence of TFIIH p62 PH (Homo sapiens) (P32780 1-108): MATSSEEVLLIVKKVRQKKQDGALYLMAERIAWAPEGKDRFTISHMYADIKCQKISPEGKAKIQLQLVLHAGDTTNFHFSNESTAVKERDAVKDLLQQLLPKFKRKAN

[2] = target: TFIIH p62 PH (Homo sapiens) (UniProt P32780); details: cited from earlier work; remark: listed apart in the source
[3] = target: TFIIH Tfb1 PH (Saccharomyces cerevisiae) (UniProt P32776); details: cited from earlier work
Sequence of TFIIH Tfb1 PH (Saccharomyces cerevisiae) (P32776 1-115): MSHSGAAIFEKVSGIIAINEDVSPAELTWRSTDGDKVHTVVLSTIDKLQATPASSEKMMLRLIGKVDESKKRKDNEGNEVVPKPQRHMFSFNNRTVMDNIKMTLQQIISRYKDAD

[4] = target: T1, PH domain of fission yeast …; assay: ITC; VP-ITC; syringe 300 uM peptide, cell 2 ml of 30 uM spPH domain; 25 x 20 ul injections; 20 mM potassium phosphate pH 6.8, 20°C; details: both partners purified

Sequence of TFIIEα acidic domain (P29083 378-439): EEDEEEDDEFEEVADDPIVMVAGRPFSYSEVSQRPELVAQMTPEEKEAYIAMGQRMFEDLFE
Sequence of hXPC acidic string (Q01831 109-156): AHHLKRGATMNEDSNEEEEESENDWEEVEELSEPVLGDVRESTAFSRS
Sequence of scRad4 acidic string (P14736 76-115): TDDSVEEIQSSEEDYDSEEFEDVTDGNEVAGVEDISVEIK

| Molecule | Kd [4] [nM] | other results |
| --- | --- | --- |
| TFIIEα acidic domain (from UniProt P29083) |  | Kd [1]: 95 nM |
| hXPC acidic string (from UniProt Q01831) |  | Kd [2]: 58 nM |
| scRad4 acidic string (from UniProt P14736) |  | Kd [3]: 50 nM |
| DSENVDDEEDDDFLDVTTA (peptide, UniProt Q9P3W1 332-350, looked up, source: synthetic peptide, bought: GenScript) [spTfa1(332-350) peptide, acidic segment of fission yeast Tfa1] | 148 ± 41.3 |  |
| NGFNEDDEDDEDEADFEDV (peptide, UniProt Q9P3W1 416-434, looked up, Tfa1 (homologue of human TFIIEalpha), Schizosaccharomyces pombe, residues 416-434; source: synthetic peptide, bought: GenScript) [spTfa1(416-434) peptide, C-terminal acidic segment of fission yeast Tfa1] | 12.4 ± 6.5 |  |
| DEDNTYSDDEEWLDLDLGL (peptide, UniProt Q10445 4-22, looked up, Rhp41 (homologue of human XPC and S. cerevisiae Rad4), Schizosaccharomyces pombe, residues 4-22 (holds Trp15, Leu16, Leu18, Leu20, Leu22); source: synthetic peptide, bought: GenScript) [spRhp41(4-22) peptide, N-terminal acidic string of fission yeast Rhp41] | 52.1 ± 13.5 |  |
